Positions count from the first letter of the chain named.
T1: BC2T A6M (human)
T1 construct: position 6 library (BC2TA6X), row M
T1 peptide: Ac-PDRKAMVSHWQQ-NH2

T2: BC2T V7M (human)
T2 construct: position 7 library, row M
T2 peptide: Ac-PDRKAAMSHWQQ-NH2

T3: BC2T D2M (human)
T3 construct: position 2 library, row M
T3 peptide: Ac-PMRKAAVSHWQQ-NH2

T4: BC2T K4A (human)
T4 construct: position 4 library, row A
T4 peptide: Ac-PDRAAAVSHWQQ-NH2

T5: BC2T P1V (human)
T5 construct: position 1 library, row V
T5 peptide: Ac-VDRKAAVSHWQQ-NH2

T6: BC2T P1G (human)
T6 construct: position 1 library, row G
T6 peptide: Ac-GDRKAAVSHWQQ-NH2

T7: BC2T D2V (human)
T7 construct: position 2 library, row V
T7 peptide: Ac-PVRKAAVSHWQQ-NH2

T8: BC2T D2G (human)
T8 construct: position 2 library, row G
T8 peptide: Ac-PGRKAAVSHWQQ-NH2

T9: BC2T P1M (human)
T9 construct: position 1 library, row M
T9 peptide: Ac-MDRKAAVSHWQQ-NH2

T10: BC2T R3V (human)
T10 construct: position 3 library (BC2TR3X), row V
T10 peptide: Ac-PDVKAAVSHWQQ-NH2

T11: BC2T D2A (human)
T11 construct: position 2 library, row A
T11 peptide: Ac-PARKAAVSHWQQ-NH2

T12: BC2T R3M (human)
T12 construct: position 3 library (BC2TR3X), row M
T12 peptide: Ac-PDMKAAVSHWQQ-NH2

T13: BC2T A5G (human)
T13 construct: position 5 library, row G
T13 peptide: Ac-PDRKGAVSHWQQ-NH2

T14: BC2T R3A (human)
T14 construct: position 3 library (BC2TR3X), row A
T14 peptide: Ac-PDAKAAVSHWQQ-NH2

T15: BC2T A6V (human)
T15 construct: position 6 library (BC2TA6X), row V
T15 peptide: Ac-PDRKAVVSHWQQ-NH2

T16: BC2T P1A (human)
T16 construct: position 1 library, row A
T16 peptide: Ac-ADRKAAVSHWQQ-NH2

T17: BC2T K4V (human)
T17 construct: position 4 library, row V
T17 peptide: Ac-PDRVAAVSHWQQ-NH2

T18: BC2T A5M (human)
T18 construct: position 5 library, row M
T18 peptide: Ac-PDRKMAVSHWQQ-NH2

B1: BC2 nanobody (BC2-Nb) (VHH)
VHH: QVQLVESGGGLVQPGGSLTLSCTASGFTLDHYDIGWFRQAPGKEREGVSCINNSDDDTYYADSVKGRFTIFMDNAKDTVYLQMNSLKPEDTAIYYCAEARGCKRGRYEYDFWGQGTQVTVSS
notes: immobilised on agarose/sepharose beads in this assay; also called BC2 nanotrap (immobilised form); not shown: C-terminal 6xHis-tag added by pHEN6 vector
B2: BC2-NbR106S (VHH)
VHH: B1 VHH with R106S
notes: immobilised on beads in this assay; not shown: C-terminal 6xHis-tag added by pHEN6 vector
B3: BC2-NbR106E (VHH)
VHH: B1 VHH with R106E
notes: as for B2

Biological target: T1, BC2T A6M
Test: library pulldown, LC-MS of supernatant; ratio vs GFP-Nb control (0=captured, 1=not captured)
Source text: (§1) In total, 12 different BC2T libraries displaying all 20 proteinogenic amino acids in one single position of the peptide were used in immunoprecipitation experiments. […] The direct comparison with the GFP-Nb made it possible to determine the quantitative degree of peptide capture without the need of labeled standards. […] The more peptide was captured the more the value approximates 0. It was not possible to discriminate between isoleucine (I) and leucine (L) peptide versions since these peptides are isobaric.
(§2) To investigate the binding specificity of the BC2T and derived mutants peptide libraries for each amino acid position of the sequence […] (SEQ ID NO:4) were synthesized with acetyl and amide groups located at the N-termini or C-termini respectively (Intavis). […] Incubations were performed in 300 μl PBS/0.01% CHAPS for 1 h on a HulaMixer (Life Technologies). Subsequent to a centrifugation step 10 μl supernatant were analyzed in a LC-MS procedure. Peptides were separated using an UltiMate3000 RSLCnano System (Thermo Scientific), composed of a C18 PepMap100μ-Precolumn (300 μm×5 mm; particle size: 5 μm; pore size: 100 Å—Thermo Scientific) and a C18 analytical column (Acclaim Rapid Separation LC (RSLC) Column: 150 mm×5 mm; particle size: 2.2 μm; pore size: 100 Å—Thermo Scientific). A step gradient was applied starting at 8% and ending after 20 min at 30% eluent B (80% acetonitrile, 20% H₂O, 0.1% formic acid).
In the case of B1, the ratio is reported as 1.
B2 was tested, and the ratio was 0.9.
In the case of B3, the ratio is reported as 1.

Biological target: T2, BC2T V7M
Test: as above
Source text: as §1, §2
With B1 the ratio was 0.3.
B2 gave a ratio of 0.5.
B3 was tested, and the ratio was 0.3.

Biological target: T3, BC2T D2M
Test: as above
Source text: as §1, §2
B1 was tested, and the ratio was 0.1.
B2 gave a ratio of 0.2.
B3 showed a ratio of 0.1.

Biological target: T4, BC2T K4A
Test: as above
Source text: as §1, §2
Work on B1 yielded a ratio of 0.2.
B2 was tested, and the ratio was 0.6.
B3 gave a ratio of 0.4.

These binders were tested against T19, BC2T K4(I/L2) in the same assay as above.
T19 construct: position 4 library, row I/L2
Source text: as §1, §2
In the case of B1, the ratio is reported as 0.2.
In the case of B2, the ratio is reported as 0.6.
B3 gave a ratio of 0.5.

Biological target: T5, BC2T P1V
Test: as above
Source text: as §1, §2
In the case of B1, the ratio is reported as 0.2.
B2 was tested, and the ratio was 0.4.
With B3 the ratio was 0.3.

Biological target: T6, BC2T P1G
Test: as above
Source text: as §1, §2
For B1, the ratio was 0.4.
B2 gave a ratio of 0.6.
In the case of B3, the ratio is reported as 0.5.

Biological target: T7, BC2T D2V
Test: as above
Source text: as §1, §2
B1 was tested, and the ratio was 0.1.
Work on B2 yielded a ratio of 0.2.
In the case of B3, the ratio is reported as 0.1.

Biological target: T8, BC2T D2G
Test: as above
Source text: as §1, §2
B1 showed a ratio of 0.3.
B2 was tested, and the ratio was 0.5.
B3 was tested, and the ratio was 0.4.

Biological target: T9, BC2T P1M
Test: as above
Source text: as §1, §2
B1 gave a ratio of 0.2.
Binder B2 has a ratio of 0.5.
Binder B3 has a ratio of 0.4.

Biological target: T10, BC2T R3V
Test: as above
Source text: as §1, §2
B1 showed a ratio of 0.3.
Binder B2 has a ratio of 0.7.
For B3, the ratio was 0.5.

Biological target: T11, BC2T D2A
Test: as above
Source text: as §1, §2
In the case of B1, the ratio is reported as 0.2.
In the case of B2, the ratio is reported as 0.4.
Binder B3 has a ratio of 0.2.

Each binder was assayed against T20, BC2T A5(I/L1) in the same assay as above.
T20 construct: position 5 library, row I/L1
Source text: as §1, §2
Work on B1 yielded a ratio of 0.1.
Work on B2 yielded a ratio of 0.2.
With B3 the ratio was 0.1.

Biological target: T12, BC2T R3M
Test: as above
Source text: as §1, §2
In the case of B1, the ratio is reported as 0.7.
Binder B2 has a ratio of 0.9.
B3 gave a ratio of 0.9.

Biological target: T13, BC2T A5G
Test: as above
Source text: as §1, §2
In the case of B1, the ratio is reported as 0.3.
B2 was tested, and the ratio was 0.5.
Work on B3 yielded a ratio of 0.4.

Biological target: T14, BC2T R3A
Test: as above
Source text: as §1, §2
Binder B1 has a ratio of 0.7.
For B2, the ratio was 0.9.
In the case of B3, the ratio is reported as 1.

Each binder was assayed against T21, BC2T V7(I/L2) in the same assay as above.
T21 construct: position 7 library, row I/L2
Source text: as §1, §2
B1 gave a ratio of 0.2.
Binder B2 has a ratio of 0.4.
B3 gave a ratio of 0.2.

Biological target: T15, BC2T A6V
Test: as above
Source text: as §1, §2
Binder B1 has a ratio of 0.3.
In the case of B2, the ratio is reported as 0.6.
B3 showed a ratio of 0.3.

Biological target: T16, BC2T P1A
Test: as above
Source text: as §1, §2
Work on B1 yielded a ratio of 0.1.
B2 gave a ratio of 0.3.
Work on B3 yielded a ratio of 0.2.

The binders below were run against T22, BC2T D2(I/L2) in the same assay as above.
T22 construct: position 2 library, row I/L2
Source text: as §1, §2
With B1 the ratio was 0.2.
B2 gave a ratio of 0.3.
B3 was tested, and the ratio was 0.2.

Biological target: T17, BC2T K4V
Test: as above
Source text: as §1, §2
B1 showed a ratio of 0.1.
In the case of B2, the ratio is reported as 0.2.
For B3, the ratio was 0.1.

Biological target: T18, BC2T A5M
Test: as above
Source text: as §1, §2
B1 showed a ratio of 0.1.
B2 gave a ratio of 0.2.
Work on B3 yielded a ratio of 0.1.

Each binder was assayed against T23, BC2T R3(I/L2) in the same assay as above.
T23 construct: position 3 library (BC2TR3X), row I/L2
Source text: as §1, §2
Work on B1 yielded a ratio of 0.5.
Work on B2 yielded a ratio of 0.9.
B3 was tested, and the ratio was 0.9.
